From PMC7343240

How the values were obtained:
[1] = target: IGF-1Rzip (leucine-zipper-stabilized human IGF-1R ectodomain) (human | Saccharomyces cerevisiae); experiment: cryo-EM structure; IGF-1Rzip mixed with IGF-II at a molar ratio of 1 to 1.5 (receptor homodimer to ligand) in TBSA (24.8 mM Tris-HCl pH 8.0, 137 mM NaCl, 2.7 mM KCl, 0.02% azide); single-particle reconstruction; open-leg and closed-leg 3D classes
[2] = target: IGF-1Rzip (leucine-zipper-stabilized human IGF-1R ectodomain) (human | Saccharomyces cerevisiae); experiment: europium time-resolved fluorescence competition binding assay (immunocapture); IGF-1Rzip (0.5 μg per well) captured on a plate coated with 24-31 anti-human IGF-1R antibody; Eu-IGF-I or Eu-IGF-II (~100,000 counts) with increasing concentrations of unlabelled IGF-I or IGF-II; 16 h at 4°C; one-site fit
[3] = target: holoIGF-1R (IGF-1R holoreceptor solubilized from P6 cells) (human) (UniProt P08069); experiment: europium time-resolved fluorescence competition binding assay (immunocapture); IGF-1R solubilized from P6 cells (100 μl lysate per well) captured on a plate coated with 24-31 anti-human IGF-1R antibody; Eu-IGF-I or Eu-IGF-II (~100,000 counts) with increasing concentrations of unlabelled IGF-I or IGF-II; 16 h at 4°C; one-site fit

| stoichiometry N (IGF-II per receptor homodimer) [1] | IC50 [2] | IC50 [3] | Substance |
| --- | --- | --- | --- |
| 1 | – | – | "Receptor grade" IGF-II (GroPep) (ligand) |
| – | 0.39 nM | – | human insulin-like growth factor I (IGF-I) (from UniProt P05019 49-118) (ligand) |
| – | 1.24 nM | 0.85 nM | human insulin-like growth factor II (IGF-II), of Francis et al., 1993 (ligand) |
